Test [1] has as its target HER2 및 HER3 (ErbB-2 및 ErbB-3 양성 세포 상에 함께 발현) (human) (UniProt P04626). As to the kind of experiment: steady-state cell affinity, 125I-labelled IgG on SK-BR-3 cells at 4 C; mean of 3 assays.
The target is the same in test [2]. The test can be described thus: steady-state cell affinity, 125I-labelled IgG on BT-474 cells at 4 C; mean of 3 assays.

As to PB4188 (bispecific antibody), the Kd (usually the free concentration of one partner at which half of the binding sites on the other are occupied at equilibrium, for simple one-to-one binding) is 2 nM in test [1] and 3.2 nM in test [2].
